Measured values from patent US20060024271A1 (priority 2004, published 2006).
Where two headings read alike, the source gives them in different places.

B1: IFN-γ (protein, UniProt P01579 24-161, looked up)
Interferon gamma: QDPYVKEAENLKKYFNAGHSDVADNGTLFLGILKNWKEESDRKIMQSQIVSFYFKLFKNFKDDQSIQKSVETIKEDMNVKFFNSNKKKRDDFEKLTNYSVTDLNVQRKAIHELIQVMAELSPAAKTGKRKRSQMLFRG

Columns and labels:
Assay type in all cases: in vivo, BALB/c mice
vaccinia virus [1] = details: for survival of vaccinia infected mice: 5×10^3 U/mouse/day i.n., 5 days, started one day before infection, 8 LD50, 21 days monitoring
vaccinia virus [2] = details: IFN-γ 5,000 to 20,000 U i.n., daily for five days from one day after infection; 50 LD50
vaccinia virus [3] = details: 8 LD50

Row | Molecule | survival of vaccinia infected mice (vaccinia virus [1]) [%] | protection against severe vaccinia infection (vaccinia virus [1]; IFN-α 5,000 U intranasal, 50 LD50 as printed in b34 (FIG. 2)) | protection against severe vaccinia infection (vaccinia virus [2]) | survival of vaccinia infected mice (vaccinia virus [3]; IFN-γ 2,000 U only, i.n., 5 days from one day after infection) [%] | protection of vaccinia infected mice (vaccinia virus [3]; IFN-γ 5,000 U) [%]
1 | IFN-α | 100 | 70-80% |  |  | 
2 | B1 | 90 |  | 70-80% | 80 | 100
